Measurements published in paper PMC4069162.

Columns and labels:
Test in all cases: cross-linking; in vivo cross-linking with DSP in S. enterica ATCC14028SΔacrABΔmdsABC::Cm5ΔtolC::Tn10 cells coexpressing MdsA-flag, MdsB-myc and MdsC-hexahistidine (grown to OD600 = 0.8); MdsC-His isolated on a Ni-NTA resin column, cross-linked MdsA detected by anti-flag immunoblot
[1] = biological target: MdsC with a c-terminal hexahistidine tag (wild type) (Salmonella enterica serovar Typhimurium ATCC14028S)
[2] = biological target: MdsC-L441R with a c-terminal hexahistidine tag (Salmonella enterica serovar Typhimurium ATCC14028S)
[3] = biological target: MdsC-G433A with a c-terminal hexahistidine tag (Salmonella enterica serovar Typhimurium ATCC14028S)
[4] = biological target: MdsC-G220A with a c-terminal hexahistidine tag (Salmonella enterica serovar Typhimurium ATCC14028S)

| Substance | crosslinking to MdsC, percent of wild type [1] | MdsA crosslinked, percent of that with wild-type MdsC [2] | MdsA crosslinked, percent of that with wild-type MdsC [3] | MdsA crosslinked, percent of that with wild-type MdsC [4] |
| --- | --- | --- | --- | --- |
| MdsA-S146D with a c-terminal flag tag (from UniProt A0A4P7XPD4 1-408) (natural protein) | 16% | – | – | – |
| MdsA with a c-terminal flag tag (wild type) (from UniProt A0A4P7XPD4 1-408) (natural protein) | – | 16% | 39% | 20% |
